Experimental data reported in patent US20240301052A1 (LANOVA MEDICINES DEVELOPMENT, published 2024).
Numbering of substitutions follows the chain as printed. Read-outs that look alike come from different tables or passages of the source.

B1: 63A11D5B4.p1.z5 hIgG1 (antibody, V domains shown)
VH: QVQLVQSGAEVKKPGASVKVSCKTSGYTFITYNMHWVRQAPGQGLEWIGAIYPGSGDTSYNQKFKGRVTMTADTSTSTVYMELSSLRSEDTAVYYCSISTIITTGAVDYWGQGTLVTVSS
VL: DIQMTQSPSSLSASVGDRVTITCKASQDVGTAVAWYQQKPGKVPKLLIYWTSTRHTGVPSRFSGSGSGTDFTLTISSLQPEDVATYYCQQYSRIPLTFGGGTKVEIK
notes: humanized hIgG1
B2: 91C9F1.p1.z14 hIgG1 (antibody, V domains shown)
VH: QVQLVQSGAEVVKPGSSVKISCKTSGFFFTEYIIHWVKQSPGQGLEWIGGIIPNNDVTNYKQNFRGRATLTADKSTNTAYMELRSSLRSEDTAVYYCARWRNAYYSAMDSWGQGTTVTVSS
VL: B1 VL with A13T, K24T, V43S, T51A, S60E, Y87F, S92R, R93T, I94S
notes: humanized hIgG1
B3: 91C9F1.p1.z6 hIgG1 (antibody, V domains shown)
VH: QVQLVQSGAEVKKPGSSVKVSCKTSGFFFTEYIIHWVRQAPGQGLEWIGGIIPNNDVTNYKQNFRGRVTLTADKSTSTAYMELSSLRSEDTAVYYCARWRNAYYSAMDSWGQGTTVTVSS
VL: B1 VL with A13T, K24T, V43S, T51A, S60E, Y87F, S92R, R93T, I94S
notes: humanized hIgG1
B4: 91C9F1.p1.z10 hIgG1 (antibody, V domains shown)
VH: B3 VH with K12V, A40S, V68A
VL: B1 VL with A13T, K24T, V43S, T51A, S60E, Y87F, S92R, R93T, I94S
notes: humanized hIgG1
B5: 63A11D5B4.p1.z15 hIgG1 (antibody, V domains shown)
VH: B1 VH with V5Q, K12V, V20M, R38K, L45R, V68A, M70L, T74K, V79A, L115S
VL: B1 VL with A13T, K42Q, V43S, S60D, T74I, S76R, Y87F
notes: humanized hIgG1
B6: 91C9F1.p1.z4 hIgG1 (antibody, V domains shown)
VH: B3 VH with T24A, I48M, L70I, K74E
VL: DIVVTQSPSSLSTSVGDRVTITCTASQDVGTAVAWYQQKPGKSPKLLIYWASTRHTGVPERFTGSGSGTDFTLTISSVQPEDVATYFCQQYRTSPLTFGVGTKLELK
notes: humanized hIgG1
B7: 30H9B8F9.p1.z13 hIgG1 (antibody, V domains shown)
VH: QVQLVQSGAEVVKPGASVKMSCKTSGYTFTTNNMHWVKQAPGQGLEWIGAIYPGSGATAYNQKFKGRATLTADKSTSTAYMELSSLRSEATAVYYCARGMYGHGAMDYWGQGTSVTVSS
VL: DIQLTQSPSFLSASVGDRVTITCKASQDVGTAVAWYQQKPGKAPKLLIYWATTRHSGVPSRFSGSGSGTEFTLTISSLQPEDFATYYCQQYSSNPLTFGQGTKLEIK
notes: humanized hIgG1
B8: 30H9B8F9.p1.z6 hIgG1 (antibody, V domains shown)
VH: B7 VH with V12K, M20V, K38R, A68V, L70M, K74T, A79V, A90D, S114L
VL: B7 VL with A43S, S60D, L73F, Y87F
notes: humanized hIgG1
B9: 30H9B8F9.p1.z9 hIgG1 (antibody, V domains shown)
VH: B7 VH with M20V, K38R, A68V, S114L
VL: B7 VL
notes: humanized hIgG1

Assays:
[1] = target: T1, human SLC34A2 (human, UniProt O95436 1-690); experiment: FACS, HEK293/human SLC34A2 cells
T1 construct: whole, on cells; also called human solute carrier 34 A2; NaPi2b
T1 sequence (looked up): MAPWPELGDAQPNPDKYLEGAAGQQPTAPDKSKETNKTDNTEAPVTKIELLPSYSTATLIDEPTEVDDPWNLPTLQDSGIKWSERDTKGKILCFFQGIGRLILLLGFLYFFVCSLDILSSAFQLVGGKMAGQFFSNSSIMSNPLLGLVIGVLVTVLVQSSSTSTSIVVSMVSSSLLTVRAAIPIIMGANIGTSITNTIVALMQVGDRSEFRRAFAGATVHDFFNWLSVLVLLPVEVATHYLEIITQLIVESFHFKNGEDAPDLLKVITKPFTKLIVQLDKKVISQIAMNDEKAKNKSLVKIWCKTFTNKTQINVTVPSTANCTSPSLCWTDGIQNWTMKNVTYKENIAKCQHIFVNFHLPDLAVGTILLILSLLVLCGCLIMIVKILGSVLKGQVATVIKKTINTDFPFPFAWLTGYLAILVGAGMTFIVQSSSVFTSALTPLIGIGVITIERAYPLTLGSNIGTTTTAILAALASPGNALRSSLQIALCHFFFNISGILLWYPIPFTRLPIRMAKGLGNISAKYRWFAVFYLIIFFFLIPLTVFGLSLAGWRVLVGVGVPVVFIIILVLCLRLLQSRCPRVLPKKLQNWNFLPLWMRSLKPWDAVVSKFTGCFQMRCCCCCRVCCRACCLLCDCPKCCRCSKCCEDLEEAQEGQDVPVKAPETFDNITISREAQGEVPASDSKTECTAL
Experimental: (§1) In another testing, cell based binding of hu Abs on human SLC34A2 expressing cells were assessed using flow cytometry. Briefly, the HEK293/H_SLC34A2, OVCAR3 and RMG-1 cells were incubated with hu Abs. After incubation at 4° C. for 60 minutes, the cells were washed with FACS buffer twice, then stained with fluorescent conjugated secondary antibody at 4° C. for 30 minutes. After that the cells were washed twice and analyzed by flow cytometry.

[2] = target: T2, Rhesus SLC34A2 (Rhesus, UniProt F7HDA3 1-690); experiment: FACS, HEK293/Rhesus SLC34A2 cells
T2 construct: whole, on cells
T2 sequence: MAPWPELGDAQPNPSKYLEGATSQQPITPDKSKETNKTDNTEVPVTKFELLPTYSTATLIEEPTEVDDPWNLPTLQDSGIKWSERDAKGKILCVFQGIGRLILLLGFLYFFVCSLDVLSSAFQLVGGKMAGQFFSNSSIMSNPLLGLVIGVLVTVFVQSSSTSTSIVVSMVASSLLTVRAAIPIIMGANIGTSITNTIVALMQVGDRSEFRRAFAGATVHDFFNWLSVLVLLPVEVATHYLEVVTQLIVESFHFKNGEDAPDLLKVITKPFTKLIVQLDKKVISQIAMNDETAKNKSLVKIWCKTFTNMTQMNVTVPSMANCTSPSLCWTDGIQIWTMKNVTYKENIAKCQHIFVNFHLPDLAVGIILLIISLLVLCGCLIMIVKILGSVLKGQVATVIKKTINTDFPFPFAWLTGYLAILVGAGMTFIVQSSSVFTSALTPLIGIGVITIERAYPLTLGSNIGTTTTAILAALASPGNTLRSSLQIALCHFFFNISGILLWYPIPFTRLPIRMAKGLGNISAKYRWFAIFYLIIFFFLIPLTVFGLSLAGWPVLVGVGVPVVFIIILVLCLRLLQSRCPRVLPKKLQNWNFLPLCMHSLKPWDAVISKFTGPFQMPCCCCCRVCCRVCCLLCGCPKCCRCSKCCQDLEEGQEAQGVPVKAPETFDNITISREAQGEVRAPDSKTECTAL

[3] = target: T1, human SLC34A2; experiment: FACS, OVCAR3 cells
Experimental: as §1

[4] = target: T1, human SLC34A2; experiment: cell-based or functional assay
[5] = target: T1, human SLC34A2; experiment: FACS, RMG-1 cells
Experimental: as §1

[6] = target: T1, human SLC34A2; experiment: FACS, OVCAR3 cells; remark: listed apart in the source
[7] = target: T1, human SLC34A2; experiment: FACS, OVCAR3 cells; remark: listed apart in the source
[8] = target: T1, human SLC34A2; experiment: FACS, OVCAR3 cells; remark: listed apart in the source
Experimental: The binding of these humanized antibodies to OVCAR3 cells was evaluated as described above, and the results are shown in FIG. 12A-D and Tables 16A-D.

Binder	EC50 [1] [nM]	Top [1] [MFI]	EC50 [2] [nM]	Top (MFI) [2] [MFI]	EC50 [3] [nM]	ADCC reporter EC50 [4] [nM]	ADCC reporter Top (MFI) [4] [MFI]	EC50 [5] [nM]	Top [5] [MFI]	EC50 [6] [nM]	Top (MFI) [6] [MFI]	EC50 [7] [nM]	Top (MFI) [7] [MFI]	Top [3] [MFI]	EC50 [8] [nM]	Top (MFI) [8] [MFI]
B1	4.8	35900	3.9	11100	13.5	0.95	116000	36.2	11800	13.5	28200	–	–	–	–	–
B2	–	–	–	–	–	–	–	–	–	–	–	3.87	36200	–	–	–
B3	1.72	36100	8.8	8160	2.86	1.77	125000	3.03	9560	–	–	1.72	36100	20300	–	–
B4	2.32	38100	4.2	9230	3.96	2.37	138000	3.91	9590	–	–	2.32	38100	22300	–	–
B5	7.12	37000	4.7	10300	9.23	1.47	122000	40.6	13200	9.23	30200	–	–	–	–	–
B6	1.12	34600	3.2	6720	2.71	3.14	137000	3.22	9820	–	–	1.12	34600	20200	–	–
B7	1.05	33000	0.8	15600	0.62	0.96	143000	0.73	10900	–	–	–	–	–	1.03	28400
B8	1.94	33600	1.1	15100	1.1	1.25	135000	1.78	10400	–	–	–	–	–	1.62	28400
B9	1.81	34200	0.9	16300	1.08	1.53	145000	1.4	11600	–	–	–	–	–	1.59	29400
